Assay results published in patent EP4667489A1.

Biological target: human PDL1 expressed on 293T-PDL1 cells (human) (UniProt Q9NZQ7)
Assay: flow cytometry on 293T-PDL1 cells

human PDL1 expressed on 293T-PDL1 cells (human), sequence (Q9NZQ7 19-290): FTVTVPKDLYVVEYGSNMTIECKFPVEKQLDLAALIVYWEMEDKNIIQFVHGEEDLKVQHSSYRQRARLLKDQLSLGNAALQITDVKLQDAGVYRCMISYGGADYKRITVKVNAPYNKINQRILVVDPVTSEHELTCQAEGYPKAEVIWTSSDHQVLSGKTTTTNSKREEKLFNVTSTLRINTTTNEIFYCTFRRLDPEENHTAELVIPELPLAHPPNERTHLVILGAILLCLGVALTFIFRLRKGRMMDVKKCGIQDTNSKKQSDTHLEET

**Q.** Which MFI.Max does the source give for IgG1 irrelevant antibody here?
**A.** 44.1
